In article PMC10100567 one finds Kd data, which are given here for one substance.

The assay has as its target high-affinity IgE receptor FcεRI on the surface of RBL-2H3 cells (rat (endogenous in RBL-2H3)). Briefly: Ligand Tracer.

As a reminder, the Kd is a measure of binding affinity in units of concentration. Higher therefore signals weaker binding. As to “Cy5-labeled monoclonal mouse anti-DNP IgE (clone SPE-7) (antibody)”, the dissociation constant (Kd) came out at 1.3 nM.
